Positions count from the first letter of the chain named. In names and notes the source's numbering stands.
Assays:
human LILRA3 [1] = biological target: T1, human LILRA3 (human, UniProt Q8N6C8 24-439); test: flow cytometry, 293T transfectants, antibody 20 µg/ml; stacked histograms, control: parental cells
T1 construct: whole, on cells; also called hLILRA3; LIRA3
Experimental: (§1) Individual ILT family members were overexpressed in 293T cells. Each transfectant was stained with 20 μg/ml of anti-ILT4 antibodies followed by 1 μg/ml of anti-human IgG secondary mAb. Binding of the antibodies to each transfectant was measured by flow cytometry.

human LILRA6 = biological target: T2, human LILRA6 (human, UniProt Q6PI73 24-481); test: as above
T2 construct: whole, on cells; also called hLILRA6
T2 sequence (Q6PI73 24-481): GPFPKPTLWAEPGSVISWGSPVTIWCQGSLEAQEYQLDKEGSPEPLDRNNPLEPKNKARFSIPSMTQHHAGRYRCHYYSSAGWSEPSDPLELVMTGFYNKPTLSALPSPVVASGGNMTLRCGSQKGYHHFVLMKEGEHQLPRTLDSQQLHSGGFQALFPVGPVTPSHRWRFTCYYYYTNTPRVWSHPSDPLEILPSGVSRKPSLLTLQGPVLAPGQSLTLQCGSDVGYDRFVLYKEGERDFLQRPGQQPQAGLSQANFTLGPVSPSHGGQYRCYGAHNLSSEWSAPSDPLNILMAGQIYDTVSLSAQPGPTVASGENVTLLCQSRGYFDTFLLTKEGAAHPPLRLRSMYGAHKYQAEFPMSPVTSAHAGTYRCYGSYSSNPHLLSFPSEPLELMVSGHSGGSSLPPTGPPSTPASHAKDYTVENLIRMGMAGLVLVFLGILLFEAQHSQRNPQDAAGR
Experimental: as §1

human LILRA2 = biological target: T3, human LILRA2 (human, UniProt Q8N149 24-483); test: as above
T3 construct: whole, on cells; also called hLILRA2
T3 sequence (Q8N149 24-483): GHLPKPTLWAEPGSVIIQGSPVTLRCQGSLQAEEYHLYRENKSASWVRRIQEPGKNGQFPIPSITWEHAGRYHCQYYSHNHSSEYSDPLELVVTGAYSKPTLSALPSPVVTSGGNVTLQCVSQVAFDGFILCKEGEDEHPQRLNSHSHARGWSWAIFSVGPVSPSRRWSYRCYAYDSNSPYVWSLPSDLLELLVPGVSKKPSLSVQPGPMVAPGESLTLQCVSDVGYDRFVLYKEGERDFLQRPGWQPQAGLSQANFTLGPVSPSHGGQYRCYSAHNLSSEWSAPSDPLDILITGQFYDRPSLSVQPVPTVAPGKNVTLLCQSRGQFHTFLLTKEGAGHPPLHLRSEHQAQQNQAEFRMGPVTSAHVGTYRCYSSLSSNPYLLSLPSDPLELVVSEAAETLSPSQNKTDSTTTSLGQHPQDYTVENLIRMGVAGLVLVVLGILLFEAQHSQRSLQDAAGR
Experimental: as §1

human LIR8 = biological target: T4, human LIR8 (human, UniProt O75023 24-590); test: as above
T4 construct: whole, on cells; also called hLIR8
T4 sequence (O75023 24-590): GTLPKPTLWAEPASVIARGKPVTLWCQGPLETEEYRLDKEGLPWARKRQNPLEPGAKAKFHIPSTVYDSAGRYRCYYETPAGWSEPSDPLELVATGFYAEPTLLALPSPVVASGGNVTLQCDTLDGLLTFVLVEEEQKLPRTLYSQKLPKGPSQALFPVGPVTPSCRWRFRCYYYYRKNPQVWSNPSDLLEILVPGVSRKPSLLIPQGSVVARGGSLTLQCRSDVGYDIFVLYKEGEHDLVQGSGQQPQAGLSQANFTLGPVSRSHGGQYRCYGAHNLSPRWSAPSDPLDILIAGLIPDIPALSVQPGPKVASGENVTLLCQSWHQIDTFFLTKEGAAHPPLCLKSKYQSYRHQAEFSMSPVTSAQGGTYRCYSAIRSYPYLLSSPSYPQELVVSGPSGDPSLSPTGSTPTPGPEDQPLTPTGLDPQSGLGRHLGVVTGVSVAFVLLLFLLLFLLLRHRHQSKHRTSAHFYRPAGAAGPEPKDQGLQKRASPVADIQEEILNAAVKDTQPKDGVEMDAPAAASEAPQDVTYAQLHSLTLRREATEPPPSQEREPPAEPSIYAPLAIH
Experimental: as §1

human LILRA1 = biological target: T5, human LILRA1 (human, UniProt O75019 17-489); test: as above
T5 construct: whole, on cells; also called hLILRA1; LIRA1
Experimental: as §1

human ILT2 = biological target: T6, human ILT2 (human, UniProt Q8NHL6 24-650); test: as above
T6 construct: whole, on cells; also called hILT2
T6 sequence (Q8NHL6 24-650): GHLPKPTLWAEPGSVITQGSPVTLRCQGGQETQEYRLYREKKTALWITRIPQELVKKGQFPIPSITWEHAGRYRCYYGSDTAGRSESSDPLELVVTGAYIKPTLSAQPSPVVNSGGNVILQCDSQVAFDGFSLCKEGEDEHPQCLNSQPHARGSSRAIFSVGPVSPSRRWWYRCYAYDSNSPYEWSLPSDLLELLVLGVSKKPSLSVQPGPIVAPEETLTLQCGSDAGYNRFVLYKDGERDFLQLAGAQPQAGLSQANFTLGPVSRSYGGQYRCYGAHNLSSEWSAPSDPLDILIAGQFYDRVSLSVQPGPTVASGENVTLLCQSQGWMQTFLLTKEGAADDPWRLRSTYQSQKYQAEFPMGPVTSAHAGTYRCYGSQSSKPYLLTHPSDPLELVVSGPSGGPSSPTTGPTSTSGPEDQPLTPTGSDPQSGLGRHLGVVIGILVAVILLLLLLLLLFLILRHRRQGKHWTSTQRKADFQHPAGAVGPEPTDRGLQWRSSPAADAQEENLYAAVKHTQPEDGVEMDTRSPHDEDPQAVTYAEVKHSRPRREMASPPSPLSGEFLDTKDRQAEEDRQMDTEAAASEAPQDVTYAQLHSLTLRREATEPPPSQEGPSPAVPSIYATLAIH
Experimental: as §1

human LILRA4 = biological target: T7, human LILRA4 (human, UniProt P59901 24-499); test: as above
T7 construct: whole, on cells; also called hLILRA4
T7 sequence (P59901 24-499): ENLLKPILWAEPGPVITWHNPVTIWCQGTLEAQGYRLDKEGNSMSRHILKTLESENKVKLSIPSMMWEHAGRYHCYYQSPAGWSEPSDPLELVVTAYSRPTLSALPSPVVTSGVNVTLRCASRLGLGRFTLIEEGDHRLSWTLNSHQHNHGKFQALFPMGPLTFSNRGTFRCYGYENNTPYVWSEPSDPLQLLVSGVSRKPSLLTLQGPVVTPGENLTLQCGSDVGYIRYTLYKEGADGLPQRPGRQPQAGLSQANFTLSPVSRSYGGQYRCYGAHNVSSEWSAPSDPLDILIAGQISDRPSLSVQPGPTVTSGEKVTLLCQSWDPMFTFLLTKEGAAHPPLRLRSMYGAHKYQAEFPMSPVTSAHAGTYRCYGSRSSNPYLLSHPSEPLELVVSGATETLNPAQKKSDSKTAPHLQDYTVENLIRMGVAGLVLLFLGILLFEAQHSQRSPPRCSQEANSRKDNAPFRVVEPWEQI
Experimental: as §1

human ILT3 = biological target: T8, human ILT3 (human, UniProt Q8NHJ6 22-448); test: as above
T8 construct: whole, on cells; also called hILT3
Experimental: as §1

human ILT5 = biological target: T9, human ILT5 (human, UniProt O75022 24-631); test: as above
T9 construct: whole, on cells; also called hILT5; LILRB3
Experimental: as §1

[2] = biological target: T10, human ILT4 (hILT4) expressed on cells (human, UniProt Q8N423 22-597); test: antibody titration flow cytometry binding assay on transfected cells, nonlinear regression
T10 construct: hILT4 on transfected CHO or 293T cells, or native on human monocytes and macrophages; also called LILRB2
T10 sequence (Q8N423 other isoform, or with tags, fused parts or gaps): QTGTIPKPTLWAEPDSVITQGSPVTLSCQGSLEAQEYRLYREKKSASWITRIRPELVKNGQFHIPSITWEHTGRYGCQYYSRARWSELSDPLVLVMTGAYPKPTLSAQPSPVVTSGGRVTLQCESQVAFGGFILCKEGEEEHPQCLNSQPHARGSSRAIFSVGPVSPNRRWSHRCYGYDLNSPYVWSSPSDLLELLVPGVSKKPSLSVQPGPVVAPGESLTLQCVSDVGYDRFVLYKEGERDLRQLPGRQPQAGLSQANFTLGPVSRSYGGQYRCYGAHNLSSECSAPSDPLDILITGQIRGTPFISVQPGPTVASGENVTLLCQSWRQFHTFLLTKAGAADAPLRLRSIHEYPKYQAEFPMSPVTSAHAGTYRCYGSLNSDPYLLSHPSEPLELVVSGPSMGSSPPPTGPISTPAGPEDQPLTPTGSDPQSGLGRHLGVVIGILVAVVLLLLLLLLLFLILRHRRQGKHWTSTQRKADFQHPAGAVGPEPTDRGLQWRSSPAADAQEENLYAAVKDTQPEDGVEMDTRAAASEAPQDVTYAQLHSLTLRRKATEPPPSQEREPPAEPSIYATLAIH

rhILT4-Fc [3] = biological target: T11, rhILT4-Fc (human, UniProt Q8N423-1 22-461); test: flow cytometry blocking assay: antibody titrated (12 points) with rhILT4-Fc fixed at 30 µg/ml; rhILT4-Fc bound to HLA-B overexpressing CHO cells read as % Positive; blocked ligand: HLA-B; the IC50 table has no unit, the concentration axis is in ug/mL
T11 construct: also called rhILT4-Fc fusion protein with a murine Fc tail; not shown: murine Fc tail
T11 sequence (Q8N423 other isoform, or with tags, fused parts or gaps): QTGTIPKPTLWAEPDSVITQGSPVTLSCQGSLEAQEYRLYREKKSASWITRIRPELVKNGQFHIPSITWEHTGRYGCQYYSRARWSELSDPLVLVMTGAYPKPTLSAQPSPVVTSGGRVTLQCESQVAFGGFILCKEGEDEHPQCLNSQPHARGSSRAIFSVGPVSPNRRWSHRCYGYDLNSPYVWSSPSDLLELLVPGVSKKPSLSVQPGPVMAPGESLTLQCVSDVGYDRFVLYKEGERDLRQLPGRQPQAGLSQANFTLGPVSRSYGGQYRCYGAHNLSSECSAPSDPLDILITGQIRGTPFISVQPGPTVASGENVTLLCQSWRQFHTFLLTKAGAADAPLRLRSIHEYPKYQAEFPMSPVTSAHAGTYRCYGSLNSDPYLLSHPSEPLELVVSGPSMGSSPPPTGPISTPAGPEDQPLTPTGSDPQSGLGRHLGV

rhILT4-Fc [4] = biological target: T11, rhILT4-Fc; test: flow cytometry blocking assay: antibody titrated (12 points) with rhILT4-Fc fixed at 30 µg/ml; rhILT4-Fc bound to HLA-A overexpressing CHO cells read as % Positive; blocked ligand: HLA-A; the IC50 table has no unit, the concentration axis is in ug/mL
human LILRA5 = biological target: T12, human LILRA5 (human, UniProt A6NI73 42-299); test: flow cytometry, 293T transfectants, antibody 20 µg/ml; stacked histograms, control: parental cells
T12 construct: whole, on cells; also called hLILRA5
T12 sequence (A6NI73 42-299): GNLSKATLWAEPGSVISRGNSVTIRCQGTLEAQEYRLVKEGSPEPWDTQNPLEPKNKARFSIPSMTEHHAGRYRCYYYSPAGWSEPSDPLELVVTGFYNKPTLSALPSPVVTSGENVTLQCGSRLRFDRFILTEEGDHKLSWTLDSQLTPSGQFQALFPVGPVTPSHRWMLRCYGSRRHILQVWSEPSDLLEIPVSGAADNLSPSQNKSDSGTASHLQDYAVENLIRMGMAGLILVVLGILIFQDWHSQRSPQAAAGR
Experimental: as §1

[5] = biological target: T10, human ILT4 (hILT4) expressed on cells; test: flow cytometry on human monocytes of a healthy donor, directly labelled antibody, GMFI; EC50 from the table below the graph; the table has no unit, the concentration axis is in ug/mL
From the text: In FIG. 18B, monocytes selected from a normal healthy donor's peripheral blood were stained with individual anti-ILT4 antibodies conjugated to […].

hILT4-His-Avi tag [6] = biological target: T13, hILT4-His-Avi tag (human, UniProt Q8N423 22-459); test: SPR Biacore T200, 37 C; antibody captured on protein A/G chip, monomeric hILT4 as analyte; kinetic fit
T13 construct: also called monomeric human ILT4; extracellular region of hILT4 linked to a His-Avi tag
T13 sequence (Q8N423 other isoform, or with tags, fused parts or gaps): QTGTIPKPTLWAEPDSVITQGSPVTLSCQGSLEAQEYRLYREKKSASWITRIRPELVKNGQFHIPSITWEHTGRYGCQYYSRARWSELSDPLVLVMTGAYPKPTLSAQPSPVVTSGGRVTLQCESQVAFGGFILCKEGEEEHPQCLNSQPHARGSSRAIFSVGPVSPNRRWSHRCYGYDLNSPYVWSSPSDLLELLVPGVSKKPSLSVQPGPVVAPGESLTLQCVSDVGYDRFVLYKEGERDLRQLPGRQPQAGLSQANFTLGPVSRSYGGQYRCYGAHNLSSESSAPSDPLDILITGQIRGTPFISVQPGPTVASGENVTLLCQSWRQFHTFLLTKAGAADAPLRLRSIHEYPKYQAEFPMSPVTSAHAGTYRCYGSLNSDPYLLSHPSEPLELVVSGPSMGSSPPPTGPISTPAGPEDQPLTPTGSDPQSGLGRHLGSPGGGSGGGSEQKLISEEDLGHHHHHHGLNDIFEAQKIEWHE
Experimental: (§2) The binding kinetics of the parent and germline reversion mutant anti-hILT4 antibodies (in the context of IgG1.3) were measured via Surface Plasmon Resonance (SPR) using a Biacore® T200 instrument. The assay temperature was 37° C. and the running buffer was PBS pH 7.4 supplemented with 0.05% Tween-20. Allanti-hILT4 antibodies were captured on a CM4 chip with pre-immobilized protein A/G (Pierce Thermo Scientific catalog number 21186). […] Monomeric human ILT4 was injected as analyte. […] The hILT4 used in this experiment, comprising the extracellular region of hILT4 linked to a His-Avi tag, consists of the following amino acid sequence: […]

human LILRA3 [7] = biological target: T1, human LILRA3; test: antibody titration flow cytometry binding assay on transfected cells, nonlinear regression
hILT4-His-Avi tag [8] = biological target: T13, hILT4-His-Avi tag; test: SPR Biacore T200, 37 C; antibody captured by anti-human Fc on CM4 chip, hILT4-His-Avi as analyte; 1:1 Langmuir fit
Experimental: The running buffer was 10 mM HEPES pH 7.4 supplemented with 0.05% Tween-20 and 1 g/L BSA. All anti-ILT4 antibodies were captured on a CM4 chip with pre-immobilized anti-human Fc capture antibody from Southern Biotech (catalog number 2081-01). […] All data were double-referenced and fitted to a 1:1 Langmuir model with mass transport using Biacore T200 Evaluation Software version 3.1.

[9] = biological target: T10, human ILT4 (hILT4) expressed on cells; test: flow cytometry on hILT4-transfected CHO cells, PE anti-human IgG secondary, GMFI (PE); EC50 from the table below the graph; the table has no unit, the concentration axis is in ug/mL
hILT4-His-Avi tag [10] = biological target: T13, hILT4-His-Avi tag; test: SPR Biacore T200, 37 C; antibody captured on protein A/G chip, monomeric hILT4 as analyte; steady state fit
Experimental: as §2

hILT4-His-Avi tag [11] = biological target: T13, hILT4-His-Avi tag; test: SPR Biacore T200, 37 C; antibody captured on protein A/G chip, monomeric hILT4 as analyte
Experimental: as §2

T1 sequence (Q8N6C8 24-439): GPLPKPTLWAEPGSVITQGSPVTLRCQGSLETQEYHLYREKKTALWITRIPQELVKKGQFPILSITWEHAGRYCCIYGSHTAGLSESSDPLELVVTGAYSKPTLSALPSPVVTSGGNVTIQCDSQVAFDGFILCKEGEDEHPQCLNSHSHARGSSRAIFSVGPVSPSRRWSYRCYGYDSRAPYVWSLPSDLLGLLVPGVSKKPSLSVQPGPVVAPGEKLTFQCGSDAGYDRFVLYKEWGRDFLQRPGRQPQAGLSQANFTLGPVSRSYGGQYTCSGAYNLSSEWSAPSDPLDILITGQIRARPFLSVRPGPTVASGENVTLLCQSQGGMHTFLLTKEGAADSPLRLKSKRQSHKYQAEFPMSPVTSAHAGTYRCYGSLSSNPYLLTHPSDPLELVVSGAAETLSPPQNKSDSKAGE

B1: 21D9.IgG1.1f (antibody)
heavy: EGQLLESGGDLVQPGGSLRLSCATSGFTFSNYAMNWVRQAPGKGLEWISVISVSGGSTYYADSVKGRFTISRDNSKNTLYLQMNSLRAEDTAVYYCAKDYYYDSGSYYDSFFDYWGQGTLVTVSSASTKGPSVFPLAPSSKSTSGGTAALGCLVKDYFPEPVTVSWNSGALTSGVHTFPAVLQSSGLYSLSSVVTVPSSSLGTQTYICNVNHKPSNTKVDKRVEPKSCDKTHTCPPCPAPEAEGAPSVFLFPPKPKDTLMISRTPEVTCVVVDVSHEDPEVKFNWYVDGVEVHNAKTKPREEQYNSTYRVVSVLTVLHQDWLNGKEYKCKVSNKALPSSIEKTISKAKGQPREPQVYTLPPSREEMTKNQVSLTCLVKGFYPSDIAVEWESNGQPENNYKTTPPVLDSDGSFFLYSKLTVDKSRWQQGNVFSCSVMHEALHNHYTQKSLSLSPGK
light: not shown
notes: Parent 21D9 in IgG1.1f (L234A, L235E, G237A, A330S, P331S); also called ILT4.6.IgG1.1
B1: no binding (tested: 20 µg/ml) (human LILRA3 [1]); no binding (tested: 20 µg/ml) (human LILRA6); no binding (tested: 20 µg/ml) (human LILRA2). B1: no binding (tested: 20 µg/ml) (human LIR8); no binding (tested: 20 µg/ml) (human LILRA1); no binding (tested: 20 µg/ml) (human ILT2). B1: no binding (tested: 20 µg/ml) (human LILRA4); no binding (tested: 20 µg/ml) (human ILT3); no binding (tested: 20 µg/ml) (human ILT5). The EC50 [2] was 0.046 µg/mL, the IC50 (rhILT4-Fc [3]) was 0.918 µg/mL and the IC50 (rhILT4-Fc [4]) was 2.88 µg/mL.

B2: 21A5.a.IgG1.3 (antibody, V domains shown)
VH: QVQLVQSGAEVKKPGASVKVSCKASGYTFTDYYLHWVRQAPGQGLEWMGIFHPSGDITSSAQNFQGRVTMTRDTSTSTVYMELSSLRSEDTAVYYCARGGVLRYLDWSHAFDIWGQGTMVTVSS
VL: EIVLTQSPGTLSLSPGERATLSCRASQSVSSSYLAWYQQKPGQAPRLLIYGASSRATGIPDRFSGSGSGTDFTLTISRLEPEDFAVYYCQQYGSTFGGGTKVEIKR
notes: Germline reversion mutant of 21A5 (VH I70T, VK A3V; 21A5.1 light chain); IgG1.3; also called ILT4.9.IgG1.3; ILT4.9
B2: no binding (tested: 20 µg/ml) (human LILRA6); no binding (tested: 20 µg/ml) (human LILRA2); no binding (tested: 20 µg/ml) (human LIR8). B2: no binding (tested: 20 µg/ml) (human LILRA5); no binding (tested: 20 µg/ml) (human ILT2); no binding (tested: 20 µg/ml) (human LILRA4). The binding result (human ILT3) was “no binding (tested: 20 µg/ml)”, the binding result (human ILT5) was “no binding (tested: 20 µg/ml)” and the EC50 [5] was 0.395 µg/mL. It also gave a Kd (hILT4-His-Avi tag [6]) of 0.17 nM, an app. act. (hILT4-His-Avi tag [6]) of 98% and a koff (hILT4-His-Avi tag [6]) of 0.00019 s⁻¹. It also gave a kon (hILT4-His-Avi tag [6]) of 1.1e+06 M⁻¹ s⁻¹, an EC50 (human LILRA3 [7]) of 52.9 µg/mL and an EC50 [2] of 0.085 µg/mL. It also gave a Kd (hILT4-His-Avi tag [8]) of 0.036 nM, an app. act. (hILT4-His-Avi tag [8]) of 100% and a koff (hILT4-His-Avi tag [8]) of 1.7e-05 s⁻¹. It also gave a kon (hILT4-His-Avi tag [8]) of 490000 M⁻¹ s⁻¹ and an EC50 [9] of 0.0627 µg/mL.

B3: 10F10.1.IgG1.3 (antibody, V domains shown)
VH: QVQLVESGGGVVQPGRSLRLSCAASGFTFSSYAMHWVRQAPGKGLEWVAIISYDEYNKYYADSVKGRFTISRDNSKNTLYLQMNSLRAEDTAVYYCAREWVGIRYWGQGTLVTVSS
VL: AIQLTQSPSSLSASVGDRVTITCRASQGISSALAWYQQKPGKAPKLLIYDASSLESGVPSRFTGSGSGTDFTLTISSLQPEDFATYYCQQFNSYPITFGQGTRLEIKR
notes: Germline reversion mutant of 10F10 (light chain F36Y); heavy chain of 10F10; IgG1.3; also called 10F10.VK-F36Y.IgG1.3
For B3, the Kd (hILT4-His-Avi tag [10]) was 56 nM, the app. act. (hILT4-His-Avi tag [10]) was 88% and the Kd (hILT4-His-Avi tag [6]) was 46 nM. It also gave an app. act. (hILT4-His-Avi tag [6]) of 94%, a koff (hILT4-His-Avi tag [6]) of roughly 0.07 s⁻¹ and a kon (hILT4-His-Avi tag [6]) of 1.5e+06 M⁻¹ s⁻¹. For the same binder, the “fold loss in overall affinity relative to parent 10F10” value (hILT4-His-Avi tag [11]) was roughly 3 fold.

B4: 10F10.3.IgG1.3 (antibody, V domains shown)
VH: B3 VH
VL: B3 VL with T63S
notes: Germline reversion mutant of 10F10 (light chain F36Y and T63S); heavy chain of 10F10; IgG1.3; also called ILT4.11.IgG1.3; 10F10.VK-F36Y/T63S.IgG1.3
With B4 the Kd (hILT4-His-Avi tag [10]) was 52 nM, the app. act. (hILT4-His-Avi tag [10]) was 115% and the Kd (hILT4-His-Avi tag [6]) was 47 nM. The app. act. (hILT4-His-Avi tag [6]) was 123%, the koff (hILT4-His-Avi tag [6]) was roughly 0.08 s⁻¹ and the kon (hILT4-His-Avi tag [6]) was 1.7e+06 M⁻¹ s⁻¹. The “fold loss in overall affinity relative to parent 10F10” value (hILT4-His-Avi tag [11]) was roughly 3 fold.

Source: patent US20200079848A1 (Five Prime, published 2020)
